Positions count from the first letter of the chain named.

The target of one data set is T1, Rrp4-exosome WT (Sulfolobus solfataricus, UniProt Q9UXC4;Q9UXC2;Q9UXC0 1-249;1-248;1-275).
T1 sequence 1: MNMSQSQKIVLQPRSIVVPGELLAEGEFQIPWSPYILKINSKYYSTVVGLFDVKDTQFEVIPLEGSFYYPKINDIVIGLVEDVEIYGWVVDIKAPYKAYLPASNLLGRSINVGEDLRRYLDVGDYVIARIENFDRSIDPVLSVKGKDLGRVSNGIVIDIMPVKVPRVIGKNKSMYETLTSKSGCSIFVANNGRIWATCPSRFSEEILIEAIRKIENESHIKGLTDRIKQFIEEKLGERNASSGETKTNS
T1 sequence 2: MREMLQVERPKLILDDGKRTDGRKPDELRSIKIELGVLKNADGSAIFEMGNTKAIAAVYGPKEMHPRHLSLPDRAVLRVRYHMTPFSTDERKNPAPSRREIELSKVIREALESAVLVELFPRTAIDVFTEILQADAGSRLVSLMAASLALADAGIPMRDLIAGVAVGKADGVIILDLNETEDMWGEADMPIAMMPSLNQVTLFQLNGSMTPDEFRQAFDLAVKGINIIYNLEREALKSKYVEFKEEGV
T1 sequence 3: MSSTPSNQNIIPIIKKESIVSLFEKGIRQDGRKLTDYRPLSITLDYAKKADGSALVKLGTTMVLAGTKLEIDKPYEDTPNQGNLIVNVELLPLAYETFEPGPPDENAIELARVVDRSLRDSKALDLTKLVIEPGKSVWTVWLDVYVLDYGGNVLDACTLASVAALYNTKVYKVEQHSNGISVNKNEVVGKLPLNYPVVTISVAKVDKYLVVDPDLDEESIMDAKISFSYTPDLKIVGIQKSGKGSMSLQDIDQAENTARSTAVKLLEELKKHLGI
Description: fluorescence anisotropy.

For data set [1], the target named is T2, Rrp4-exosome, Rrp4 KNK170ENQ (Sulfolobus solfataricus, UniProt Q9UXC4;Q9UXC2;Q9UXC0 1-249;1-248;1-275, M1S;M3S;K170E;K172Q).
T2 sequence 1: T1 sequence 1 with M1S, M3S, K170E, K172Q
T2 sequence 2: T1 sequence 2
T2 sequence 3: T1 sequence 3
The data set is described as follows: NMR line-shape titration.

The target in data set [2] is T3, Rrp4-exosome, Rrp4 3MS K38M (Sulfolobus solfataricus, UniProt Q9UXC4;Q9UXC2;Q9UXC0 1-249;1-248;1-275, M1S;M3S;K38M).
T3 sequence 1: T1 sequence 1 with M1S, M3S, K38M
T3 sequence 2: T1 sequence 2
T3 sequence 3: T1 sequence 3
Description: NMR methyl TROSY CSP.

In data set [3] the target is T4, Rrp4-exosome, Rrp4 3MS N171M (Sulfolobus solfataricus, UniProt Q9UXC4;Q9UXC2;Q9UXC0 1-249;1-248;1-275, M1S;M3S;N171M).
T4 sequence 1: T1 sequence 1 with M1S, M3S, N171M
T4 sequence 2: T1 sequence 2
T4 sequence 3: T1 sequence 3
The data set is described as follows: NMR methyl TROSY CSP.

Data set [4] has as its target T5, Sulfolobus solfataricus Rrp41-Rrp42 exosome core (Sulfolobus solfataricus, UniProt Q9UXC2 1-248; Q9UXC0 1-275).
T5 sequence 1: T1 sequence 2
T5 sequence 2: T1 sequence 3
Description: pull-down.

B1: long RNA (4-thio-U, fluorescein) (structured_RNA)
RNA: GCCCCCCCCGAAAGGGGGGGGAAAAAAAAAAAAAAAAAAAAAUAAAAAAAAAAAGCU
modifications: 4-thiouridine at the single U within the A tail (written U)
Take B1: the dissociation constant Kd with Rrp4-exosome WT was 0.0675 ± 0.0227 µM.

B2: NMR substrate RNA (hairpin-A32, cyclic phosphate) (structured_RNA)
RNA: GCCCCCCCCGAAAGGGGGGGGAAAAAAAAAAAAAAAAAAAAAAAAAAAAAAAA
modifications: 2'-3' cyclic phosphate at 3' end
Take B2: the affinity in data set [1], expressed as Kd, was 60.5 ± 4.6 µM. The binding result in data set [2] and in data set [3] was “binds” throughout.

B3: Sulfolobus solfataricus Rrp4 exosome cap protein (natural protein, UniProt Q9UXC4 1-249, looked up)
chain: T1 sequence 1
Take B3: the binding result in data set [4] is “binds”.
